Assay results from publication PMC12852032.

Experiments:
recombinant rat C2 (rat) [1] = assay: Meso Scale Discovery (electrochemiluminescence plate binding assay); rat C2 coated on the plate; serial dilutions of antibody; binding and washing at pH 7.4; detection with Sulfo-tag goat anti-human IgG
recombinant rat C2 (rat) [2] = assay: Meso Scale Discovery (electrochemiluminescence plate binding assay); rat C2 coated on the plate; serial dilutions of antibody; binding and washing at pH 7.4 + 1.25 mM Ca2+

maximum MSD signal (recombinant rat C2 (rat) [1]): 12000
maximum MSD signal (recombinant rat C2 (rat) [2]): 24700
B1: empasiprubart (antibody, V domains shown)
VH: EVQLVQSGAEVKKPGASVKVSCKASGYTFTDYNMDWVRQATGQGLEWIGDINPNYESTGYNQKFKGRATMTVDKSISTAYMELSSLRSEDTAVYYCAREDDHDAFAYWGQGTLVTVSS
VL: DNVLTQSPDSLAVSLGERATISCRASKSVRTSGYNYMHWYQQKPGQPPKLLIYLASNLKSGVPDRFSGSGSGTDFTLTISSLQAEDAATYYCQHSRELPYTFGQGTKLEIK
